Measurements from doi:10.1101/2022.07.21.500383 (bioRxiv, 2022).
One block for each binder: values may come before it.

Tests used:
Test in all cases: ITC
[1] = target: IL-11_(Δ10/W147A)/IL-11Rα_(D1-D3) binary complex (human) (UniProt P20809)
[2] = target: IL-11_(Δ10/PAIDY)/IL-11Rα_(D1-D3) binary complex (human) (UniProt P20809)
[3] = target: T1, IL-11Δ10/IL-11Rα_(D1-D3) binary complex (human, UniProt P20809 32-199; Q14626 23-317)
T1 sequence 1: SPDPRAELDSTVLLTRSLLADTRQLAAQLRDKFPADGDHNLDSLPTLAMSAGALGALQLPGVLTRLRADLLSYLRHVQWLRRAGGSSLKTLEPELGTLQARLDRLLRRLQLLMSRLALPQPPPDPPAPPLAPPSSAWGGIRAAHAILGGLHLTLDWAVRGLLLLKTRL
T1 sequence 2: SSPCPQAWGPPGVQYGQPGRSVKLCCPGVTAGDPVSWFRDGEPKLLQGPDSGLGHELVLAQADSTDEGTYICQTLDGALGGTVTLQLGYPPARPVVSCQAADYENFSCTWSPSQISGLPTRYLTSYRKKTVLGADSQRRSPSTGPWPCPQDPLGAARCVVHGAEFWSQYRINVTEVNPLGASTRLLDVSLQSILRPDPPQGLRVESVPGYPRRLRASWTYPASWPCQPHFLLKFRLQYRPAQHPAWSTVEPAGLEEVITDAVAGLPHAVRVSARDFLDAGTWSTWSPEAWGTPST

[4] = target: IL-11_(Δ10/Mutein)/IL-11Rα_(D1-D3) binary complex (human) (UniProt P20809)

Kd [1]: 130 nM | Kd [2]: 60 nM | Kd [3]: 380 nM | dH [3]: 6.45 kcal/mol
B1: gp130_(D2-D3) (receptor, human, UniProt P40189 123-325, looked up)
chain: GLPPEKPKNLSCIVNEGKKMRCEWDGGRETHLETNFTLKSEWATHKFADCKAKRDTPTSCTVDYSTVYFVNIEVWVEAENALGKVTSDHINFDPVYKVKPNPPHNLSVINSEELSSILKLTWTNPSIKSVIILKYNIQYRTKDASTWSQIPPEDTASTRSSFTVQDLKPFTEYVFRIRCMKEDGKGYWSDWSEEASGITYEDR

dH [3]: -4.78 kcal/mol
B2: gp130EC (complete extracellular domains of gp130, D1-D6) (receptor, human, UniProt P40189 23-619, looked up)
chain: ELLDPCGYISPESPVVQLHSNFTAVCVLKEKCMDYFHVNANYIVWKTNHFTIPKEQYTIINRTASSVTFTDIASLNIQLTCNILTFGQLEQNVYGITIISGLPPEKPKNLSCIVNEGKKMRCEWDGGRETHLETNFTLKSEWATHKFADCKAKRDTPTSCTVDYSTVYFVNIEVWVEAENALGKVTSDHINFDPVYKVKPNPPHNLSVINSEELSSILKLTWTNPSIKSVIILKYNIQYRTKDASTWSQIPPEDTASTRSSFTVQDLKPFTEYVFRIRCMKEDGKGYWSDWSEEASGITYEDRPSKAPSFWYKIDPSHTQGYRTVQLVWKTLPPFEANGKILDYEVTLTRWKSHLQNYTVNATKLTVNLTNDRYLATLTVRNLVGKSDAAVLTIPACDFQATHPVMDLKAFPKDNMLWVEWTTPRESVKKYILEWCVLSDKAPCITDWQQEDGTVHRTYLRGNLAESKCYLITVTPVYADGPGSPESIKAYLKQAPPSKGPTVRTKKVGKNEAVLEWDQLPVDVQNGFIRNYTIFYRTIIGNETAVNVDSSHTEYTLSSLTSDTLYMVRMAAYTDEGGKDGPEFTFTTPKFAQGEIE
modifications: N-linked glycans at N21, N61, N135 (visible in the structures)

Kd [4]: 55 nM | Kd [2]: 20 nM | Kd [3]: 3 nM | dH [3]: -8.13 kcal/mol
B3: gp130_(D1-D3) (cytokine binding domains of gp130) (receptor, human)
chain: ELLDPCGYISPESPVVQLHSNFTAVCVLKEKCMDYFHVNANYIVWKTNHFTIPKEQYTIINRTASSVTFTDIASLNIQLTCNILTFGQLEQNVYGITIISGLPPEKPKNLSCIVNEGKKMRCEWDGGRETHLETNFTLKSEWATHKFADCKAKRDTPTSCTVDYSTVYFVNIEVWVEAENALGKVTSDHINFDPVYKVKPNPPHNLSVINSEELSSILKLTWTNPSIKSVIILKYNIQYRTKDASTWSQIPPEDTASTRSSFTVQDLKPFTEYVFRIRCMKEDGKGYWSDWSEEASGITYEDR
modifications: N-linked glycans at N21, N61, N135 (visible in the structures)
